In publication PMC7480107:

Biological target: F-actin (rabbit muscle actin, polymerized) (rabbit) (UniProt P68135)
Experiment: co-sedimentation

Pav-HEAD (1-500 aa) (domain or fragment)
percent of the protein in the pellet with F-actin: 84%

Pav^DEAD-HEAD (1-500 aa with G131E mutation) (domain or fragment)
percent of the protein in the pellet with F-actin: 87%
